Test results taken from publication PMC11409674, “Raffinocyclicin is a novel plasmid-encoded circular bacteriocin produced by Lactococcus raffinolactis with broad-spectrum activity against many gram-positive food pathogens” (Applied and environmental microbiology, 2024).

Assays:
proteases = system: proteases; design: method as in 4 sources, ref 33 = [33]; PMID 21948835; doi:10.1128/AEM.06348-11; 33 Masuda Y Ono H Kitagawa H Ito H Mu F Sawa N Zendo T Sonomoto K Identification and characterization of leucocyclicin Q, a novel cyclic bacteriocin produced by Leuconostoc mesenteroides TK41401 Appl ||| ref 27 = [27]; PMID 21057028; doi:10.1128/AEM.01173-10; 27 Borrero J Brede DA Skaugen M Diep DB Herranz C Nes IF Cintas LM Hernández PE Characterization of garvicin ML, a novel circular bacteriocin produced by Lactococcus garvieae DCC43, isolated from mall ||| ref 30 = [30]; PMID 29177092; doi:10.1099/mgen.0.000134; 30 van Heel AJ Montalban-Lopez M Oliveau Q Kuipers OP Genome-guided identification of novel head-to-tail cyclized antimicrobial peptides, exemplified by the discovery of pumilarin Microb Genom 2017 3 ||| ref 29 = [29]; PMID 18552180; doi:10.1128/AEM.00817-08; 29 Martin-Visscher LA van Belkum MJ Garneau-Tsodikova S Whittal RM Zheng J McMullen LM Vederas JC Isolation and characterization of carnocyclin A, a novel circular bacteriocin produced by Carnobacteri; details: cited from earlier work
proteinase K = biological target: T1, proteinase K (Parengyodontium album, UniProt P06873); test: residual antimicrobial activity after proteinase K treatment; assay type: in vitro ADME; details: proteinase K 1 mg/mL, 37 °C, 4 h
T1 construct: purchased Sigma-Aldrich, St Louis, USA
T1 sequence (P06873 106-384): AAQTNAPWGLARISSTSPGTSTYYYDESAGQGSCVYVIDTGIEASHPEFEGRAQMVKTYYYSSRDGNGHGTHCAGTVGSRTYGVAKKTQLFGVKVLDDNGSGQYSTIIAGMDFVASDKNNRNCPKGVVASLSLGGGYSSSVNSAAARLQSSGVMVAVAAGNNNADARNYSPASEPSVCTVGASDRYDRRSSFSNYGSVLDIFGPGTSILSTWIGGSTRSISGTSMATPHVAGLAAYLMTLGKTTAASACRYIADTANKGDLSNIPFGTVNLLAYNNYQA

Substance	antimicrobial activity after protease treatment (proteases)	loss of activity when treated with proteinase K (proteinase K; indicator L. lactis HP)	Phenotype (proteinase K; 40 µL spotted around chloroform-inactivated producer spot, overlay L. lactis HP, 30 °C, 24 h)	Residual activity (proteinase K; 40 µL spotted around chloroform-inactivated producer spot, overlay L. lactis HP, 30 °C, 24 h, true halo treated/control (10 mM PBS pH 7.4) × 100)
carnocyclin A (LVAYGIAQGTAEKVVSLINAGLTVGSIISILGGVTVGLSGVFTAVKAAIAKQGIKKAIQL; UniProt B2MVM5 5-64, looked up) [circular bacteriocin]	completely abolished			
raffinocyclicin		over 90%	S	7%
